Experimental data published in US20220073611A1 (LANKENAU INSTITUTE FOR MEDICAL RESEARCH, published 2022).

Assays:
[1] = biological target: T1, TEV protease-mobilized soluble ATD (human, UniProt Q05586 19-561, biotinylated (Sulfo-NHS-Biotin) in the titration on plate-bound 5F5); experiment: ELISA, ATD captured on the plate by a Myc tag antibody
T1 construct: also called mobilized ATD; plate-adherent ATD
Protocol: To test binding of human NR1 antibodies to plate-adherent ATD, we added 5 μg/mL Myc antibody (C3956, Sigma-Aldrich) (100 μl/well) to Black 96-well plates (12-566-24, Thermo Fisher) overnight, washed the plates 3 times with PBST, blocked with 5% inactivated fetal bovine serum and 3% Goat serum (Invitrogen) in PBST for 1 h at 37° C., washed 3 times, added 5 μg/mL ATD, and then incubated for 1 h at 37° C. and washed 3 more times. We added human mAbs, 5F5, 2G6, 1D1, and control isotype 6A at 5 μg/mL (100 μl/well), or 5 μg/mL anti-NR1 mAb (MAB 1586 RUHL, Millipore), in triplicate samples, and incubated for 1 h at 37° C. After three additional PBST washes, secondary antibodies were added, either an anti-human IgG HRP conjugate (9040-05 Southern Biotech, Birmingham, Ala.) or anti-mouse IgG HRP conjugate (1010-05, Southern Biotech), at 1:2000 and incubated for 1 h at 37° C., followed by 3 washes. Super Signal ELISA Femto Substrate was used for detection. Data was collected in the Biotek SYNERGY II Microplate reader and analyzed with Microsoft Excel.

[2] = biological target: T2, NR1 ATD fusion protein on 293T-ATD cells (human); experiment: flow cytometry on 293T-ATD cells, co-stained with commercial anti-NR1 mAb
T2 construct: also called HEK293T-ATD; GluN1-ATD fused to the PDGF receptor transmembrane domain
Protocol: Primary antibodies included the BIOORBYT APC-labeled NR1 mAb at 10 μg/mL, an ALEXA FLUOR 488 labeled Myc tag mAb at 2 μg/mL (16-308, Millipore, Billerica, Mass.) three human IgG mAbs (5 μg/mL) isolated from a patient with ANRE (5F5, 2G6, 1D1) and the 6A isotype control mAb¹⁴. As a secondary antibody for the human mAbs, we used a FITC-conjugated F(ab′)2 goat anti-human IgG (109-096-008, Jackson ImmunoResearch, West Grove, Pa.). Cells were assayed with a BD FACSCANTO II (Becton Dickson, Franklin Lakes, N.J.). Data were analyzed using FLOWJO 8.8.7. Software (Tree Star, Ashland, Oreg.).

T1 sequence (Q05586 other isoform, or with tags, fused parts or gaps): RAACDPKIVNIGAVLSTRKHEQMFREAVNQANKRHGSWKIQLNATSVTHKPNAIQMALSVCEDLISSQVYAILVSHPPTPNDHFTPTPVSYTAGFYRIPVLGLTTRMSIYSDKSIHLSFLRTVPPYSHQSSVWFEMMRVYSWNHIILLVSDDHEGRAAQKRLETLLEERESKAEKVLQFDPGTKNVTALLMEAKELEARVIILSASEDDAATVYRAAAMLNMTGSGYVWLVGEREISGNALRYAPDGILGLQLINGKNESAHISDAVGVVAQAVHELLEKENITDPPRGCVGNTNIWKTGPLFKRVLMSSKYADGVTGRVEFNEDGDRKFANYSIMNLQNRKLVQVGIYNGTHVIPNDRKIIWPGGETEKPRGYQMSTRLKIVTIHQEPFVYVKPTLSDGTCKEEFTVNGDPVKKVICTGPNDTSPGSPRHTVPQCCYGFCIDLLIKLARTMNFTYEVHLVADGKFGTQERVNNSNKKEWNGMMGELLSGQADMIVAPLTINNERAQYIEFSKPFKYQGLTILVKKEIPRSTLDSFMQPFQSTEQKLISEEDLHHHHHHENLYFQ
T2 sequence (chain, as listed by the source limits assumed): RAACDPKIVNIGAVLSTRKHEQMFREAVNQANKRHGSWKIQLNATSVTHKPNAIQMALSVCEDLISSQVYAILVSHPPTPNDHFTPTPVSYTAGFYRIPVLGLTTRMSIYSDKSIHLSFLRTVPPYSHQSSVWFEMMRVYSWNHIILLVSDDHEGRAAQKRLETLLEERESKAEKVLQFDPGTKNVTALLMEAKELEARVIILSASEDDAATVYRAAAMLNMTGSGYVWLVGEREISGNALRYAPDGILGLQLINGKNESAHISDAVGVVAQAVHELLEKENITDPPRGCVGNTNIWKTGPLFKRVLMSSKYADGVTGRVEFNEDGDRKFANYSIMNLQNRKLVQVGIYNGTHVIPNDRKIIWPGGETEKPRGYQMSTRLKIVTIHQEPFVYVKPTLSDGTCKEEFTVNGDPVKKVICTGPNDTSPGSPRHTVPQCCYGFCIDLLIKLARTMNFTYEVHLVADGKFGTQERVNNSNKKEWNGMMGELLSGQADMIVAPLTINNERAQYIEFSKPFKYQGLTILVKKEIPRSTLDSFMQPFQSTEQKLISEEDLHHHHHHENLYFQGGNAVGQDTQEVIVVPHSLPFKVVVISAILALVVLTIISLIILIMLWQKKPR

binding result [1]	Percent GluN1 positive 293T-ATD cells bound [2]	double positive cells [2]	Binder
binds	53.7%	37%	mAb 1D1 (antibody, V domains shown, Human IgG mAb from an ANRE patient; also called 1G1; 1DA) VH: LVQLVESGGGVVQSGRSLRLSCAASGFAFHTFTIHWVRQAPGKGLDWVTAIYFDGTKKYYADSVKGRFTVSRDNSKNTVYLQMNGLRGEDTAVYYCARARYSYGLSFDYWGQGTPVTVSS VL: QSVVTQPPSVSAAPGQKVTISCSASSSYLGSNYVSWYQQLPGTAPKLLIYDNNKRSSGISDRFSGSKSGTSATLDITGLQTGDEADYYCGAWDSSLSVVVFGGGTKLTVL
binds	90.5%	62.3%	mAb 5F5 (antibody, V domains shown, Biotinylated or CypHer5E-labelled in some assays; also called SFS; 5G5) VH: QVQLVESGGGVVRPGGSLRLSCAASGFTFSTYSLHWVRQAPGKGLEWVGVILYDGSKKYYADSVRGRFTISRDNSKSTLNLDMSSLRPDDTAVYYCARDPIAVAPRPSGMVPQGFDYWGQGTLVTVSS VL: QSVVTQPPSASGTPGQRVTISCSGSSSNIGRNFVFWYRQLPGTAPKVLIYKNIQRPSGVPDRISGSRSGSSASLAISGLRSEDEADYYCASWDDSLSGVVFGGGTKLTVL
binds	58.8%	40.5%	mAb 2G6 (antibody, V domains shown, Human IgG lambda mAb from a hybridoma of an ANRE patient; Biotinylated or CypHer5E-labelled in some assays; also called 2C6; 2G6-biotin) VH: QVQLQESGGGVVQPGRSLRLSCAASGFSFNAFAMHWVRQAPGKGLEWVARISHYGSDDYYADSVKGRFTISRDNSQNTLFLQMNSLKAEDTGVYYCWRGFTLVRGVISRNPINRFSGMDVWGQGTTVTVS VL: SYELMQPPSVSVSPGQTARITCSGDALPKKYAYWYQQKSGQAPILVIYEDNKRPSGIPERFSGSSSGTMATLTISGAQVEDEADYFCYSTDSSGNHGVFGGGTKLTVL
